Reference: patent US20170334973A1 (INTEGRATED BIOTHERAPEUTICS, published 2017)

B1: FVM02P (antibody, V domains shown)
VH: EVQLVESGGGLVQPGGSLRLSCAASGFTGFTFSDYAFYWVRQAPGKGLEWVGFIRGKAYGGTADYAASVKGRFTISRDNSKNTAYLQMSSLKTEDSAVYYCTSQGVTVATPYHWGQGVLVTVSS
VL: DIVLTQSPLSLPVTPGEPASISCRSSQSLLHSGGKTYLYWYLQKPGQSPQLLIHEVSNRASGVPDRFSGSGSGTDFTLKISRVEAEDVGVYYCMQGIQLPLTFGGGTKVEIKR
B2: FVM03 (antibody, V domains shown)
VH: QVQLQESGPVLVKPSETLSLTCAVSGYSISSAYAWSWIRQPPGKGLEWVGYVGSSSDYNPSLKSRVTISRDTSKNRIFLNLRSLTAADTAVYYCARDRANNSMDVWGRGVLVTVSS
VL: EIVLTQSPDSLGVSLGERVTINCKSSQSLLYSSNNKNYLAWYQQKPGQAPKLLIYWASTRESGVPNRFSGSGSGTDFTLTISGLQAEDVAVYYCQQYYSTPLTFGQGTKVEIKR

Legend:
SUDV GPddmuc [1] = molecular target: T1, SUDV GPddmuc (Sudan virus (SUDV), UniProt Q66814 33-650); assay: ELISA
EBOV GPddmuc [2] = molecular target: T2, EBOV GPddmuc (Ebola virus (EBOV), UniProt Q05320 33-650); assay: ELISA
MARV GPddmuc = MARV GPddmuc (Marburg virus (MARV), UniProt P35253 19-648); assay: ELISA
SUDV GPddmuc [3] = molecular target: T1, SUDV GPddmuc; assay: native ELISA
EBOV GPddmuc [4] = molecular target: T2, EBOV GPddmuc; assay: native ELISA

Binder | EC50 (SUDV GPddmuc [1]) [nM] | EC50 (EBOV GPddmuc [2]) [nM] | EC50 (MARV GPddmuc) [nM] | binding result (SUDV GPddmuc [3]) | binding result (EBOV GPddmuc [4])
B1 | 0.158 | 0.127 | > 10 | – | –
B2 | – | – | 0.306 | no binding | no binding
